Where “and” joins values, the source holds several entries; their conditions need not be identical. Equal values may be shown once. Entries after “also recorded” stand apart in the source; their conditions may differ.
How the values were obtained:
[1] = system: frozen tissues from human, Rhesus monkey, and Sprague-Dawley rat; assay: Tissue cross-reactivity study; assay type: binding; details: AB-16B5 staining at 2 and 10 μg/mL
Protocol: In addition, a tissue cross-reactivity study was conducted to determine the potential cross-reactivity of AB-16B5 with frozen tissues from human, Rhesus monkey, and Sprague-Dawley rat tissues.

[2] = Non-clinical toxicity, weekly administration, rats; assay type: in vivo, Sprague-Dawley rats
Text: This finding most likely reflects a slight antigenic stimulation by AB-16B5 in these 2 regional lymph nodes.

[3] = Non-clinical pharmacokinetics, single and repeat-dose, monkeys; assay type: in vivo; details: Rhesus monkeys
Text: (§1) There was an approximate 70% increase in systemic exposure following repeated dosing from Day 1 to Day 26 which is consistent with the elimination half-life of AB-16B5 and the dosing intervals. […] The sCLU concentrations were generally back to their baseline levels after 3 to 5 days. The concurrent decrease in sCLU concentrations immediately following dosing with AB-16B5 is consistent with an antigen-sink phenomenon.

[4] = Phase I study AB-16B5-101: safety profile; assay type: in vivo, human
[5] = Non-clinical pharmacokinetics, single and repeat-dose, rats; assay type: in vivo; details: Sprague-Dawley rats; infusion
Text: as §1

In the case of “AB-16B5: humanized IgG2 monoclonal antibody targeting sCLU; light chain SEQ ID NO:11, heavy chain SEQ ID NO:12”, the “membrane staining in tissue panels” value [1] is reported as “no membrane staining was observed”, the “No Observable Adverse Effect Level (NOAEL)” value ([2]; Sprague-Dawley rats, weekly administration) is reported as 100 mg/kg/dose and the “incidence of minimal lymphoid hypercellularity, mandibular lymph node” value ([2]; rat, in vivo) is reported as 1/20. The “incidence of minimal lymphoid hypercellularity, mesenteric lymph node” value ([2]; rat, in vivo) was 2/20, the “treatment-related clinical signs and changes (body weight, food consumption, ophthalmology, clinical pathology, organ weights)” value ([2]; rat, in vivo) was “did not result in any treatment-related clinical signs” and the “systemic exposure with increasing dose levels” value [3] was “generally greater than dose proportional”. The “drug accumulation in terms of Cmax” value ([3]; repeated dosing once or twice weekly) was “no evidence of drug accumulation”, the “subjects reporting SAEs” value ([4]; 5 of 15 subjects, all SAEs considered unrelated to AB-16B5) was 33% and the “AEs reported, total” value ([4]; 15 subjects, all causalities) was 167. For the same substance, the “dose at which weekly infusion was safe and well tolerated” value ([4]; 60-minute IV weekly infusion) was “up to 12 mg/kg”, the dose-limiting toxicity ([4]; 60-minute IV weekly infusion, 1.5 to 12.0 mg/kg, 15 subjects) was “No dose-limiting toxicity; also recorded: No dose-limiting toxicities” and the “deaths reported in the study” value ([4]; Subjects 004 and 014, associated with progression of the disease) was “Two”. The “number of SAEs” value ([4]; all considered unrelated to AB-16B5) was 6 and 5, the “AEs of Grade 3 to 5” value ([4]; reported by 8 subjects) was 12 and the “subjects who discontinued the study due to an adverse event” value ([4]; two subjects (004, 011)) was 13%. The “systemic exposure over 24 hours with increasing dose levels” value [5] was “dose proportional manner”.

— patent US20240317884A1, “METHOD FOR ALLOWING IMMUNE CELLS INFILTRATION IN TUMORS” (Alethia Biotherapeutics Inc., priority 2021, published 2024)
